What was measured:
AMSIN (actinomyces) = test: SPR
[1] = molecular target: emorisin (Emergomyces orientalis); test: SPR

Substance | Kd (AMSIN (actinomyces)) | koff (AMSIN (actinomyces)) | kon (AMSIN (actinomyces)) | Kd [1] | koff [1] | kon [1]
γRBD (from UniProt P0DTC2 319-541) (domain or fragment) | 607 nM | 0.00545 s⁻¹ | 8970 M⁻¹ s⁻¹ |  |  | 
βRBD (from UniProt P0DTC2 319-541) (domain or fragment) | 310 nM | 0.00536 s⁻¹ | 17300 M⁻¹ s⁻¹ | 49.5 nM | 0.00561 s⁻¹ | 11400 M⁻¹ s⁻¹
δRBD (from UniProt P0DTC2 319-541) (domain or fragment) | 76.6 nM | 0.0038 s⁻¹ | 49600 M⁻¹ s⁻¹ | 31.6 nM | 0.00202 s⁻¹ | 64000 M⁻¹ s⁻¹
Spike protein of the SARS-CoV-2 Omicron variant (from UniProt P0DTC2) (natural protein) | 57.9 nM |  |  |  |  | 
αRBD (from UniProt P0DTC2) (domain or fragment) | 37.4 nM |  |  |  |  | 
ζRBD (from UniProt P0DTC2) (domain or fragment) | 1450 nM |  |  |  |  | 

— paper PMC10315472
